Numbering of substitutions follows the chain as printed.
T1: TNF-beta (human, UniProt P01374 35-205)
T1 construct: also called TNFβ; Tumour Necrosis Factor-beta
T1 sequence (looked up): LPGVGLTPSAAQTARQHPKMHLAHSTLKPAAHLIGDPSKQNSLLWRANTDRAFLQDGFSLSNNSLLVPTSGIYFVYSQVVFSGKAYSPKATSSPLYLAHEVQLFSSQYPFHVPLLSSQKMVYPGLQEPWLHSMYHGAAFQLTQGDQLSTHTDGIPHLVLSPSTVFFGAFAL

T2: Fas ligand (human, UniProt P48023 134-281, limits assumed)
T2 sequence (looked up): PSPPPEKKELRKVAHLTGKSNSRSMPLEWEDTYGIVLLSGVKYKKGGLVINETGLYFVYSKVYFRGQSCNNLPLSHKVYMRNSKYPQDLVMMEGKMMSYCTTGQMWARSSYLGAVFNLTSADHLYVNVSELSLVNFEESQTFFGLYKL

B1: I016F04 (scFv)
scFv: QVQLQQSGSELKKPGASVKVSCKVSGYSLTKMSMHWVRQSPGEGLEWVGGIDPETRQPVYAQKFQGRVTITKDTSASAAYMELSSLGSEDTALYYCARATYDPLTGYSFDGFDIWGQGTLVTVSSGGGGSGGGGSGGGGSQSVLTQPASVSGSPGQSITISCTGTSSDVGGYNYVSWYQQHPGKAPKLMIYEGSKRPSGVSNRFSGSKSGNTASLTISGLQAEDEADYYCSSYTTRSTRVFGGGTKLTVLG
B2: I008C03 (scFv)
scFv: QMQLVRSGGGVVQPGRSLRLSCAASGFTFSSYGMHWVRQAPGKGLEWVSVTYSGGNTNYADSVRGRFTISRDNSKNTLYLQMNSLRAEDTAVYYCAREGSYDILTGYYVGVGRMDVWGKGTLVTVSSGGGGSGGGGSGGGGSSELTQDPAVSVALGQTVRITCQGDSLRSYYTNWFQQKPGQAPLLVVYAKNKRPSGIPDRFSGSSSGNTASLTITGAQAEDEADYYCNSRDSSGNHVVFGGGTKLTVLG
B3: I037E07 (scFv)
scFv: QVQLVQSGAEVKKPGASVKVSCKASGYTFTNYGITWVRQAPGQGLEWMGWISAYNGNRNYAQKLQGRVTMTTDTSTSTAYMELRSLRSDDTAVYYCVRDGIDILLVPAALMDVWGRGTMVTVSSGGGGSGGGGSGGGGSQSVLTQPASVSGSPGQSITISCTGTSSDVGGYNYVSWYQQHPGKAPKLMIYEGSKRPSGVSNRFSGSKSGNTASLTISGLQAEDEADYYCSSYTTRSTRVFGGGTKLTVLG
B4: I037E12 (scFv)
scFv: B3 scFv with Q1E, R116K, M119L, S193N
B5: I016H07 (scFv)
scFv: GVQLVQSGAEVKKPGASVKVSCKASGYTFTHYAINWLRQAPGQRPEWMGTINTGNGNTKYSQNFQGRLTITRDTSASTVNMELSSLRSEDTAVYYCAGGYHDPLTSYNYNWFDPWGQGTMVTVSSGGGGSGGGGSGGGGSSELTQDPAVSVALGQTVRITCQGDSLRSYYTNWFQQKPGQAPLLVVYAKNKRPSGIPDRFSGSSSGNTASLTITGAQAEDEADYYCHSRDSSGNHVLFGGGTKLTVLG
B6: I079F11 (scFv)
scFv: QVQLVQSGGGLVKPGGSLRLSCAASGFTFSSYSMNWVRQAPGKGLEWVAVVSSDGGNKYYADSVKGRFTISRDNSKNTVYLQMNSLRADDTAVYYCAKTGSGFDYWGRGTLVTVSSGGGGSGGGGSGGGGSDIQMTQSPSTLSASIGDRVTITCRASEGIYHWLAWYQQKPGKAPKLLIYKASSLASGAPSRFSGSGSGTDFTLTISSLQPDDFATYYCQQYSNYPLTFGGGTKLEIKR
B7: I079E02 (scFv)
scFv: QVQLVQSGAEVKKPGSSVKVSCKASGGTFSSYAISWVRQAPGQGLEWMGGIIPIFGTANYAQKFQGRVTITADKSTSTAYMELSSLRSDDTAVYYCARDSGSYYYDAFDIWGKGTMVTVSSGGGGSGGGGSGGGGSDIVMTQSPSTLSASVGDRVTITCRASQGISSWLAWYQQKPGKAPKLLIYAASSLQSGVPSRFSGSGSGTDFTLTISSLQPEDFATYYCQQANSFPLTFGGGTKVEIKR
B8: I082G02 (scFv)
scFv: KVQLVESGGGVVQPGRSLRLSCVTSGFTFSSYGMHWVRQAPGKGLEWVAGISYDGAKEYYGDPVKGRFTISRDNTKKTLNLQMNSLRAEDTAVYYCARDGYRTNDALDIWGQGTLATVSSGGGGSGGGGSGGGGSDIQMTQSPSTLSASIGDRVTITCRASEGIYHWLAWYQQKPGKAPKLLIYKASSLASGAPSRFSGSGSGTDFTLTISSLQPDDFATYYCQQYSNYPLTFGGGTKLEIKR
B9: I082H08 (scFv)
scFv: EVQLVESGGGLVQPGGSLRLSCAASGFTFSDYGMHWVRQRPGKGLEWIAFIGSDGSNKYYGDTVKGRFTISRDNAKNSLYLQMNSLRAEGTAVYYCARDWDMDVWGQGTMVTVSSGGGGSGGGGSGGGGSSHVILTQPRSVSGSPGQSVTISCTGTSSDVGGYHYVSWYQQHPGKAPRLMIYEVTKRPSGVSNRFSGSKSGNTASLTISGVQAEDEADYYCSSYTSASTVIFGGGTKLTVLG
B10: I099D03 (scFv)
scFv: QVQLVQSGAEVKKPGASVRVSCKSSGYTFTNYGISWVRQAPGQGLEWMGWISNNNGKTYYAQKVQGRVTMTTDTSTSTDYMELRGLRSDDTAIYYCARDNGGGTIGFDYWGRGTLVTVSSGGGGSGGGGSGGGGSAQAVLTQPSSVSGAPGQRVTMSCTGSSSNIGAGYDVHWYQQLPGTAPKLLIYDNTNRPSGVPDRFSGSRSGTSASLAITGLQAEDEADYFCQSYDITLSAVFGTGTKVTVLG
B11: I075A02 (scFv)
scFv: QVQLVQSGAEVKKPGSSVKVSCRASGGSFNHAISWVRQAPGRGLEWMGGILPMYGTANYAQKFQGRVTITADKLTNTVYMDLSRLRYEDTAVYYCARELGLSIVGATTGALDMWGRGTLVTVSSGGGGSGGGGSGGGGSAQSVVTQPPSASGTPGQRVTVSCSGGRSNIGSNTVSWYQQLPGTAPKLLIYSNDERPSGVPDRFSGSNSGTSASLAISGLQSEDEADYYCAAWDDSLNGVAFGGGTKLTVLG
B12: I006E07 (scFv)
scFv: QVQLQQSGAEEKKPGASVKVSCKASGYTFTSYAMHWVRQAPGQRLEWMGWINAGNGNTKYSQKFQGRVAITRDTSASTAYMELSSLRSEDTAVYYCARADYDILTGYSPLTYGMDVWGRGTLVTVSSGGGGSGGGGSGGGGSDIQMTQSPSTLSASIGDRVTITCRASEGIYHWLAWYQQKPGKAPKLLIYKASSLASGAPSRFSGSGSGTDFTLTISSLQPDDFATYYCQQYSNYPLTFGGGTKLEIKR
B13: I008D05 (scFv)
scFv: GVQLVQSGAEVKKPGSSVKISCKASGVTFNDYAFSWVRQAPGQGLEWVGGIIPKFGKAKYAQKFQGRLTISGDKSTSTAYMELRSLTSDDTAVYYCARATYDPLTGYSFDGFDIWGQGTMVTVSSGGGGSGGGGSGGGGSQSVLTQPASVSGSPGQSITISCTGTSSDVGGYNYVSWYQQHPGKAPKLMIYEGSKRPSGVSNRFSGSKSGNPASLTISGLQAEDEADYYCSSYTTRSTRVFGGGTKLTVLG
notes: also called 1008D05

Biological target: T3, B Lymphocyte Stimulator, soluble form (human) (human, UniProt Q9Y275 134-285, biotinylated with NHS-biotin where used as biotinylated B Lymphocyte Stimulator)
T3 construct: Coated on plastic, captured on streptavidin plates, amine-coupled to a CM5 chip or free in solution, depending on the assay; also called BLyS; immobilized B Lymphocyte Stimulator
Experiment: phage competition ELISA

| Binder | binding result |
| --- | --- |
| B1 | binds |
| B2 | binds |
| B3 | binds |
| B4 | binds |
| B5 | binds |

Biological target: T4, HIS-tagged B Lymphocyte Stimulator (human, UniProt Q9Y275 71-285)
T4 construct: Expressed in E. coli; also called HIS-B Lymphocyte Stimulator; histidine-tagged B Lymphocyte Stimulator; not shown: histidine tag from the pQE9 vector
Experiment: BIAcore, purified scFv over low density HIS-BLyS surface
Experimental: The chip containing the low density HIS-B Lymphocyte Stimulator surface was inserted into the BIAcore. […] The dilution series was then injected sequentially over the blank control (flow cell 1) and low density HIS-B Lymphocyte Stimulator surface (flow cell 2) using the following program: […]

| Binder | Kd |
| --- | --- |
| B6 | 5 nM |
| B7 | 10 nM |
| B8 | 6 nM |
| B9 | 1 nM |
| B10 | 4 nM |

Biological target: T1, TNF-beta
Experiment: phage ELISA

| Binder | binding result |
| --- | --- |
| B11 | no binding |
| B2 | no binding |
| B3 | no binding |
| B4 | no binding |
| B5 | no binding |

Biological target: T5, TNF-alpha (human, UniProt P01375 77-233)
T5 construct: also called TNFα; TNF-α
T5 sequence (P01375 77-233 limits assumed): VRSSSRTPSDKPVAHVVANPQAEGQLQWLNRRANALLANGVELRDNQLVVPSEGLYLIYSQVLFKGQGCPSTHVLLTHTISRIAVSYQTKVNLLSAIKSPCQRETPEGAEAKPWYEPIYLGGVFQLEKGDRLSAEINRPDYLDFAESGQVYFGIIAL
Experiment: phage ELISA

| Binder | binding result |
| --- | --- |
| B12 | no binding |
| B11 | no binding |
| B1 | no binding |
| B2 | no binding |
| B3 | no binding |
| B4 | no binding |
| B5 | no binding |
| B13 | no binding |

Biological target: LIGHT (human, UniProt O43557 74-240, limits assumed)
Sequence (O43557 74-240 limits assumed): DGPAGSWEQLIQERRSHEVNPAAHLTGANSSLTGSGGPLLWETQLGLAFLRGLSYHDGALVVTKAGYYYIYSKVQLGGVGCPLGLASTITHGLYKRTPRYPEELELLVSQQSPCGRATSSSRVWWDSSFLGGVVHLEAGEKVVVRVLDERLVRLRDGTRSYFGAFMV
Experiment: phage ELISA

| Binder | binding result |
| --- | --- |
| B11 | no binding |

Biological target: T3, B Lymphocyte Stimulator, soluble form …
Experiment: phage ELISA

| Binder | binding result |
| --- | --- |
| B12 | binds |
| B11 | binds |
| B13 | binds |

Biological target: T2, Fas ligand
Experiment: phage ELISA

| Binder | binding result |
| --- | --- |
| B1 | no binding |
| B2 | no binding |
| B3 | no binding |
| B4 | no binding |
| B5 | no binding |

Biological target: T6, mouse B Lymphocyte Stimulator (mouse, UniProt Q9WU72 127-309, limits assumed)
T6 construct: also called murine B Lymphocyte Stimulator; immobilized mouse B Lymphocyte Stimulator
T6 sequence (Q9WU72 127-309 limits assumed): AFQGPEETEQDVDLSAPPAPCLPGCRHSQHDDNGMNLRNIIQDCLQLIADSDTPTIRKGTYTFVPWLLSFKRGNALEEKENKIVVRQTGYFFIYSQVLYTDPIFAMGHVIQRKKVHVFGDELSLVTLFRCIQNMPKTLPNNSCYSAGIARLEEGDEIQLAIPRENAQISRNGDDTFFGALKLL
Experiment: phage ELISA

| Binder | binding result |
| --- | --- |
| B2 | no binding |
| B3 | no binding |
| B4 | no binding |
| B5 | no binding |

Biological target: T7, Bovine serum albumin (bovine, UniProt P02769 25-607)
T7 construct: also called BSA
T7 sequence (P02769 25-607 limits assumed): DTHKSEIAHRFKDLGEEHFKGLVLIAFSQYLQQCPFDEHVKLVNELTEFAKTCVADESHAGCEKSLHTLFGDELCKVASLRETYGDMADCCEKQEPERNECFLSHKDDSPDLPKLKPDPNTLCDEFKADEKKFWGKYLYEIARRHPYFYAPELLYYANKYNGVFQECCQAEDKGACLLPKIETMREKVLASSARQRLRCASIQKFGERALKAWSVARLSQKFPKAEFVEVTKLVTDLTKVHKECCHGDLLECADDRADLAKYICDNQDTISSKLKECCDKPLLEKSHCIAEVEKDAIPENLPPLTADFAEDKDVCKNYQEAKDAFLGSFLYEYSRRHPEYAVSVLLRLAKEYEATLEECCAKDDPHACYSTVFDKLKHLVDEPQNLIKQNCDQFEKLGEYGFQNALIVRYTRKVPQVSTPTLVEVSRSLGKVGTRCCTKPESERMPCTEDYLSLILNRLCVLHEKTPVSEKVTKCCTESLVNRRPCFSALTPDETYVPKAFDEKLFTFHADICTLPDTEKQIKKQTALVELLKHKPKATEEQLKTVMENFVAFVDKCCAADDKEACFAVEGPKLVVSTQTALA
Experiment: phage ELISA

| Binder | binding result |
| --- | --- |
| B12 | no binding |
| B11 | no binding |
| B1 | no binding |
| B13 | no binding |

Biological target: T8, TRAIL (human, UniProt P50591 114-281)
T8 construct: also called TNF-related apoptosis inducing ligand
T8 sequence (P50591 114-281 limits assumed): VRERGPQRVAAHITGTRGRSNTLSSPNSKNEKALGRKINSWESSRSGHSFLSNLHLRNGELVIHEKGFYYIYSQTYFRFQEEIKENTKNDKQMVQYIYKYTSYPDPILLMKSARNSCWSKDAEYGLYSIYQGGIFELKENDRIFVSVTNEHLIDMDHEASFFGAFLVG
Experiment: phage ELISA

| Binder | binding result |
| --- | --- |
| B11 | no binding |
| B1 | no binding |
| B2 | no binding |
| B3 | no binding |
| B4 | no binding |
| B5 | no binding |

Biological target: T9, membrane-bound B Lymphocyte Stimulator on U937 plasma membrane preparations (human, UniProt Q9Y275 1-285)
T9 construct: Natural protein in plasma membrane fractions of the human cell line U937 coated on ELISA plates; also called U937 plasma membranes; U937 membranes
Experiment: phage ELISA

| Binder | binding result |
| --- | --- |
| B12 | binds |
| B1 | binds |
| B2 | binds |
| B3 | binds |
| B4 | binds |
| B5 | binds |
| B13 | binds |

Reference: patent US20110293610A1 (published 2011)
